Assay results published in the nanobody polyreactivity screen of Harvey et al. (2022).

Experiment: yeast display, Sf9 membrane polyspecificity reagent, FACS + sequencing; frameworks hold sequencing errors
In short: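 Polyreactivity labels are assigned by the sorting gate from which each nanobody was recovered. The gates were low and high (top ~1%), set on anti-HA fluorescence for expression and streptavidin fluorescence for reagent binding. Before sorting, galactose-induced (36–48 hours) yeast display cells were stained for 1 hour at 4 °C with 10% biotinylated, detergent-solubilized Sf9 membrane reagent.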

| Sequence | polyreactivity (PSR sort gate) |
| --- | --- |
| QVQLVESGGGLVHAGGSLRLSCAASGSIFKVYAMGWYRQAPGKERELVASITSGGRTYADSVKGRFTISRDNAKNTVYLQRNSLKPEDTAVYYCSARSRSKFYYWGQGTQVTVSS | high polyreactivity |
| QVQLVESGGGLVQAGGSLRLSCAASGRTFAPYAMGWYRQAPGKERELVAAIRWTGTSTYYADSVKGRFTISRDNAKNTVYLQMNSLKPEDTAVYYCNADLYNREGWGQGTQVTVSS | high polyreactivity |
| QVQLVESGGGLVQAGGSLRLSCAASGNIFIHYAMGWYRQAPGKERELVAAITWSGGSTYYADSVKGRFTISRDNAKNTVYLQMNSLTPEDTAVSYCNSVSKYGPADGYGDYWGQGTQVTVSS | high polyreactivity |
| QVQLVESGGGLVQAGGSLRISCAASGSTFGRYAMGWYRQAPGKEREFVAAITQGGTNTYYADSVKGRFTISRDNAKNTVYLQMNSLKPEDTAVYYCARVRRYPLRYNYWGQGTQVTVSS | high polyreactivity |
| QVQLVESGGGLLQAGGSLRLIWAASGIIFVKNSMGWYRQAPGKERELVAAITVSGSRTYYADSVKGRFTISRDNAKNTVYLQMNSLKPEDTAVYYCNAYPYYRGRNMDSWGQGTQVTVSS | high polyreactivity |
| QVQLVESGGRLVQAGGSLRLSCAASGSIFALYAMGWYRQQPGKVRELVAAIRRGTSTKYADSVKGRFTISRDNAKNTVNLHMKSLKPEDTAVYYCNARYYYCSSISRWSDYWVQGTQVTVSS | high polyreactivity |
| QVQLVESGGGLVQAGGSLRLSCAASGSIFPYAMGWYRQSPGKERELVAAITRSGASTYYADSVKGRFTISRDNAKNTVYLQMNSLKPEDTAVYYCAAYALRGVRYPYRVDFYYWGQGTQVTVSS | high polyreactivity |
| QVQLVESGGGLVQAGGSLRLSCAASGTTFYRNAMGWYRQAPGKERELVAAISWTGGRTYYADSVKGRFTISRDNAKNTVYLQMNSLKPEDTAVYYCNKGDSASSLDYWGQGTQVTVSS | high polyreactivity |
| QVQLVESGGGLVQAGGSLRLSCAASGRIFYLYAMGWYRQAPGKERELVAAISVSGARTYYADSVKGRFTISRDNAKNTVYLHMNSLKPEDTAVYYCATVGPYRSRRAGDYWGQGTQVTVSS | high polyreactivity |
| QVQLVESGGGLVQAGGSLRLSCAASGSTFYYYAMGWYRQAPGKERELVAAISATGGSTYYADSVKGRFTISRDNAKNTVYLQMNSLKPEDTAVYYCAAYASRRLRTIRIFGNDYWGQGTQVTVSS | high polyreactivity |
| QVQLVESGGGLVQAGGSLRLSCAASGRIFRTNAMGWYRQAPGKERELVASINSDGSTNYADSVKGRFTISRDNAKNTVYLQMNSLKPDDTAVYYCAAGYFWGRIKYYYWGQCTQVTVSS | high polyreactivity |
| QVQLVESGGGLVQAGGSLRLSCAASGSIFRTNTMGWYRQAPGKERELVAAITAIGDSTYYADSVKGRFTISRDNAKNTVYLQMNSLKPEDTAVYYCAAEKVSWGYHFYSSYDYWGQGTQVTVSS | low polyreactivity |
| QVQLVESGGGLVQAGGSLRLSCDASGLIFWRNAMGWYRQAPGKERELVAGITSGGSTYYADSVKGRFTISRDNAKNTVYLQMNCLKPEDTAVYYCAKSTWQSYYYPRGSVYWGQGTQVTVSS | high polyreactivity |
| QVQLVESGGGLVQAGGSLRLSCAASGFTFWGNAMGWYRQAPGKERELVAAISRSGGRTYYADSVKGRFTISRDNAKNTVYLQMNSLKPEDTAVYYCAAGSSHHFDYEGGYWGQGTQVTVSS | low polyreactivity |
| QVQLVDSGRGLFQAGGSLRLSCAASGRTSSSNVMGWYRQAPGKERELVASINEGGNTYYADSVKGRFTISRDNATNTVYLQMNSLKPEDTAVYYCATEESGYSSWYGYGYSYDYWGQGTQVTVSS | low polyreactivity |
| QVQLVESGGGLVQAGGSLRLSCAASGFTFWAYAMGWYRQAPGKERELVAAISGSGGNTYYADSVKGRFTISRDNAKNTVYLQMNSLKPEDTAVYYCAVEDAGQGGDYWGQGTQVTVSS | low polyreactivity |
| QVQLVESGGGLVQAGGSLRLSCAASGFTLRGNAMGWYRQAPGKERELVAAISTGGSTYYADSVKGRFTISRDNAKNTVYLQMNSLKPEDTAVYYCARRGWFHYRYYYWGQGTQVTVSS | high polyreactivity |
| QVQLVESGGGLVQAGGSLRLSCAASGFTFNRYAMGWYRQAPGKEREFVAAITRRGGNTYYADSVKGRFTISRDNAKNTVYLQMNSLKPEDSAVYYCNAVFGPSSYGAKEYDYWGQGTQVTVSS | high polyreactivity |
| QVQLVESGGGLVQAGGSLRLSCAASGFIFSIYAMGWYRQAPGKERELVAAISGTGSTSYADSVKGRFTISRDNAKNTVYLQMNSLKPEDTAVYYCAKDGPGRLGDDYWGQGTQVTVSS | low polyreactivity |
| QVQLVESGGGLVQAGGSLRLSCAASGSIFYAYAMGWSRQAPGKERELVATISSVGSTYYADSVKGRFTISRDNAKNTVYLQMNSLKPEDTAVYYCAKPRIVVYKTGYDYWGQGTQVTVSS | low polyreactivity |
| QVQLVESGGGLVQAGGSLRLSCAASGFTFIKYAMGWYRQAPGKEREFVAAITRSGTSTYYADSVKGRFTISRDNAKNTVYLQMNSLKPEDTAVYYCAARYVYNSDRVSERDYWGQGTQVTVSS | high polyreactivity |
| HVQLVESGGGLVQAGGSLRLSCAASGRTFLVYAMGWDRQAPGKERELVADITRSGGRTYYADSVKGRITISRDNAKNTVYLQINSLKPEDTAVYYCAARPYFVGPIEYDYWGQGTQVTVSS | high polyreactivity |

| Sequence | polyreactivity (PSR sort gate) |
| --- | --- |
| QVQLVESGGGLVQAGGSLRLRCAASGFIFCQYSMGWYRQAPGKERELVAAITWGGTNTYYADSVKGRFTISRDNAKNTVYLQMNSLKPEDTAVYYCAADNSPFTGNLDYWGQGTQVTVSS | low polyreactivity |
| QVQLVESGGGLVQAGGSLRLSCASSGSTSYRYAMGWYRQAPGKERELVAAISSSGGSTYYADSVKGRFTISRDNAKNTVYLQMNSLKPEDTAVYYCAARFYSGPGGYTMYYWGQGTQVTVSS | high polyreactivity |
| QLQLVESGGGLVQAGGRLRLSCASSGSTFHSYVMGWYRPAPGKERELVAAITSRGGSTNYADSVKGRFTISRENAKNTVYLHMNSLKPEDTAVYYCAADGYWGWSYFRYDYLGQGTQVTVSS | low polyreactivity |
| QVQLVESGGGLVQAGGSLRLSCAASGFIFSWYAMGWYRQAPGKERELVAAISKRGGSTYYADSVKGRFTISRDNAKNTVYLQMNSLKPEDTAVYYCAADRLPSGSLVEYWGQGTQVTVSS | high polyreactivity |
| QVQLVESGGGLVQAGGSLRLSCAASGSIFHWYTMGWYRQAPGKERELVATISAGGSTYYADSVKGRFKISRDNAKNTVYLQMNSLKPEDTAVYYCNRRVHGVYRWRRSDSWGQGTQVTVAS | high polyreactivity |
| QVQLVESGGGLVQAGGSLRLSCAASGSTLSWYAMGWYRQAPGKERELVAAITRGGSTYYADSVKGRFTISRDNAKNTVYLQMNSLKPEDTAVYYCNAGRDGSRFQYRYDYWGQGTQVTVSS | low polyreactivity |
| QVQLVESGGGLVQAGGSLRLSCAASGFTFKRYAMGWYRQAPGKERELVAAITGSGGSTYYADSVKGRFTISRDNAKNTVYLQMNSLKPEDTAVYYCAKKRIYWSGRPTIGTYIMGYWGQGTQVTVSS | high polyreactivity |
| QVQLVESGGGLVQAGGSLRLSCAASGSIFEWYAMGWYRQAPGKERELVATITGSGGSTYYADSVKGRFTISRDNAKNTVYLQMNSLKPEDTAVYYCAAVPPPGGLDYWGQGTQVTVSS | high polyreactivity |
| QVQLVESGGGLVQAGGSLRLSCAASGSTFTGYAMGWYRQAPGKEMELVAAISISGGRTVYADSVKGRFTISRDNAKNTVYLQMNSLKREDTAVYYCNARYTRYTLRYYYWGQGTQVTVSS | high polyreactivity |
| QVQLVESGGGLVQAGGSLRLSCAASGYTFHGNAMGWYRQAPGKERELVAAISRNGGRTYYADSVKGRFTISRDNAKNTVYLQMHSLKPEDTAVYYCNASKFYGVRFKYDYWGQGTQVTVSS | high polyreactivity |
| QVQLVESGGGLVQAGGSLRLSCAASGSIFGYYALGWSRPAPGKERELVASITSGDSTNYADSVKGRFTISRDNAKKTVYLQMNSQKPEDTAVYYCTTERGDYDEYDYWGQGTQVTVSS | low polyreactivity |
| QVQLVESGGGLVQAGGSLRLSCAASGRIFAWYAMGWYRQAPGKERELVAAISSGGSTNYADSVKGRFTISRDNAKNTVYLQMNSLKPEDTAVYYCNRYPVRDTGGYWGQGTQVTVSS | low polyreactivity |
| QVQLVESGGRLVQAGGSLRLSSAASGSTFVDYDMGWDRQAPGKERELVAAISGSGGRTYYADSVKGRFTISRDTAKNTVYLQLISVKPEDTAVYYCAAVNAGGELAYWGQGTQVTVSS | high polyreactivity |
| QVHLVESGGGLVQAGGSLRLSCAASGSTFWKYVMGWYILAPGKERELVAAITSRGGSTYADSVKGRFTISRDNAKNTVYLQMNSLKTEDTAVYYCAATKFWYYGYDYWGQGTQVTVSS | low polyreactivity |
| QVQLVESGGGLVQAGGSLRLSCAASGSTFYFYAMGWYREAPGKERELVAAISKRGTSTYYADSVKGRFTISRDNAKNTVYLEMNSLKPEDTAVYFCAADAPRGYNYWGQGTQVTVSS | high polyreactivity |
| QVQLVESGGGLVQAGGSLRLSCAASCVRNAMGWYRQAPGKERELVAAITSGGNTNYADSVKGRFTISRDNAKNTVYLQMNSLKPEDTAVYYCAKDLLYYTQQGTGVVDYDYWGQGTQVTVSS | low polyreactivity |
| QVQLQGSGGGLVQAGGSLRLSCAASGYIFQNVPMGWNRQAPCKERELVAGIDNGTSTNYADSVNGRFTISRDNAKNTVYLQMNSLKPEDTAVYYCAAAGQADDTLGYWGQGTQVTVSS | low polyreactivity |
| QVQVVESGGGLVQAGGSLRLSCAASGRIFANNAMGWYRQAPGKERELVAAITASSGSTYYADSVKGRFTISRDNAKNTVYFQMNSLKPEDTAFYYCAATLRWGFRWYFGFDYWGQGTQVTVSS | high polyreactivity |
| QVQLVESGGGLVQAGGSLRLSCAASGFTFYSNAMGWYRQAPGKERELVATIRYRGGSTYADSVKGRFTISRDNAKNTVYLQMNSLKPEDTAVYYCAARKYRSFRQRTGDYWGQGTQVTVSS | high polyreactivity |
| QVRLVESGGGLVQAGGSLRLSCAASGSIFQYYVMGWYRQAPGKERELVAAISRNGGRTYYADSVKGRFTISRDNAKNTVYLQMNSLKPEDTAVYYCAADSIPHRDNYWGQGTQVTVSS | high polyreactivity |
| QVQLVESGGGLVQAGGSLRLSCAASGRTLYTNAMGWYRQPPGKEREFVASISGSGGSTYYADSVKGRFTISRDNAKNTVDLQMNRLKQEDTAVYYCAADPAQTVEFGKYDYWGQGTQVTVSS | low polyreactivity |
